In the DeepSol protein solubility set:

Assay: soluble on expression in E. coli; label from the status in PepcDB or PDB records

Sequence	soluble on expression in E. coli
MAHHHHHHMKNTVVRIKAELENVKRLFCDDEYLWIFNIRDSTSSLTRDNIQFRKTDILEIPNSRGTANFMIKWTEYPKYSTINFVNTKNSCSYEEVNNNEWRDFASFECRGIELIDFFPSNNFIVEDTKGKLYYDVNLSDQNWCDYNEEHEMCVGIYNLEYEVN	soluble
MGSDKIHHHHHHMILLSFDIEEFDVPKEHQVDISMEEQIKVSVEGTTRILDCLERNQVKATFFCTANFALHAPDIIKRIQEGGHEIASHGFYHWTFEVEDLKRSKDQLEEITGTKVYGYRQARMMPVSEKAVYEAGYIYNSSLNPTFIPGRYMRLSTPRTPFIKDRVMQMPASVTPLLRFPLFWLSCHNLPASLYRWLCKYTHRHDGYFVTYFHPWEFYPLNEHPEWKLPFIIRNHAGEGMEKRLDAFILYFRKKNVSFGRFIDYIKLNKDIMK	not soluble
MSLSPALSAPKPLRFPANPAPTALKQFALTLQSESYRYRTPMKFGGRVVEEVTVLTAQCTATNQAGQVADGDQIGIGSMTMGVAWAWPDASVADGTKLEVVLELASRMAAQVNEASGTLTGHPMEICLQLASQREDLVAAVAAGHDLTAPIPELAILLAASPIEAALFDAHGKAAGQSSYSLLSAEHLPPDLGEMTGDDRYAGLRLDQFISSSPVATLPLYHLVGALDPLTQDDLAEPVGDGLPETLGEWITRNELTHLKIKLNGDDADWDFRRVRDINTVANETTDRGSSTGKPWWFSLDFNERCEDEAYVLGLLDRLESECPEAFERIQYIEQPTHRDLKRPGAVTMHQAAARIPVVIDESLTGLESLHLAVSQGYSGIALKACKGHAEALLLGAIAVHENLFLCVQDLTCVGASLLHSASLSAHIPGVAAVESNGRQYCPEGNAEWMACFGPMFEVRGGSVPTSCLDGPGLGYEGHHHHHH	soluble
GPGSMVTTDINRDPVKRAMEDGTWRPGQKTAPQQQPQSLGVQCVAAPPQQAPCVPPLLVQYVPAPQAQYTPQPQLMQYVPQQPPQGYYQPRPPLPQPSYYPPGPPPPLQSGYYQQPPVPIQQVYYTQPPSQCYAPQPQYQY	not soluble
MGEKLELRLKSPVGAEPAVYPWPLPVYDKHHDAAHEIIETIRWVCEEIPDLKLAMENYVLIDYDTKSFESMQRLCDKYNRAIDSIHQLWKGTTQPMKLNTRPSTGLLRHILQQVYNHSVTDPEKLNNYEPFSPEVYGETSFDLVAQMIDEIKMTDDDLFVDLGSGVGQVVLQVAAATNCKHHYGVEKADIPAKYAETMDREFRKWMKWYGKKHAEYTLERGDFLSEEWRERIANTSVIFVNNFAFGPEVDHQLKERFANMKEGGRIVSSKPFAPLNFRINSRNLSDIGTIMRVVELSPLKGSVSWTGKPVSYYLHTIDRTILENYFSSLKNPKLREEQEAARRRQQRESKSNAATPTKGPEGKVAGPADAPMDSGAEEEKAGAATVKKPSPSKARKKKLNKKGRKMAGRKRGRPKK	soluble
MSYTATNQPVRAPPLNSDYELIDGDPYFTRVVSYFRFSDYVNWAVITASFPLGMKLWEKIVPSQGKGLKPSVVNPVTLRVSTLLGFFGGFCLNYVKSSQRFLGWRENSREVKLDRFEIKQKLSQGVLPYNEHLSKLDDRNKDISNRNSQYSHALLFVIPWFNTTYHPYHQVDLKKYYINREGEENWGFELKPLDEIYAKYGKKF	not soluble
MFIAGYIEKPERGKDIILTEKGRISNEKFFPTLEEKRLIDQYWKNKSELRKARKKANSIIDDSTSTKAVEIDENSGDSDWKTELIDQLKKFSPGKFESFSRLLISKMGVRIDNQRGIIRSGDHSIDGFGYFQSDEFRTSRVAIQAKRFTNGSVGEPEIDKFKGVMDSFNAEYGIFITTSYFTDQAKEKAVVGNNSVTLIDGIKLASLVQKYQLRV	not soluble
MNINLETAEQHAVQAYSDKKIQINSIIYESSLIVSKKEIITDFVIKDIQDINNSYIDLLLRSKPELIIIGHLQTGKTLPATLISQLSQKRIGIECMSIGAACRTYNVLLSEHRAVVAGFIFLEHHHHHH	not soluble
MSLELKPKRFLVLDDQLVLRKLISRQASFFTRFAVEIDEFSDPAEALRSIAEGGYHLVITDIGMPGMNGIDFIKNVARLGYQSALLIISGYDGKTLQTIADMSVNLGLSCTRFLSKPYSAEAFVAALNGIFSEMERSEAEGHHHHHH	not soluble
MSLKAINFINWKYIGLTGCLVASLLTACGDDETGPEVVTPLEPKLEIVNEASTFSFSSAGNSAQVLTFNANQDWHIVLDDSEGVDNSWVVLFEREGTAGEGNKVWVAAAENVEPDARRANFSLVSGGFKYDFVIYQAQKDAVVITDPKAYENLDAGEHIISVEFGINTGEYKTSFLYSGDTGWIMPTDERPAGEPETRAMENHTLYFKVLPNQKFDIRRGTIEISSKDNDNVKATMNIFQTGLPKPVITVDNKEMFTNLASKEDSILLKYKATNTNGPRDLTIDIDKNDQDWISFKPAIDAKGDSTFLVSVKENTGGERTATIALCAAADKKVREEFIVTQAQASDVELVITNKNDFRTSLDKLGSAATVKYSVQSTLTDPKNEILVDIVYPEESGYTAENGWLHMANNSMPERVIFTYDVNKVLRERQATVYIYRKGYENKKDYMVIRQAAATQIEIPAPGGLTNVLQSLIDDEIYKDWESITSLELKGRLNDTDLNLLKNMMTAGKGYNLKTLDMTEVENETLKNGVFNGCNLLENISFPTGLQYVPREACRNCTKLRTVVVNEGPTYIGRHAFGNSVVNEAWFPSTMTYVYGYIFDNVTALKTLHLKSLPFQCKEVARSDADEGATQPTTWCTVFKTWPSTVYVPMEYLEYYKNPDPKHVVSMHFQDLLNTLTSESEEWTKGPKVQQPYLKSNSALKSNFTWGSSATTIMGESEGHHHHHH	soluble
MNHQSYSAPTQAVAANTHLIYSTEQGGAVSPTPQKSIGSIADYDPMNGQWGTAAAQPRNSEKLGYLKAQVDKGPARFCADFAGAPPPSSNSISSTSPHSTLSSPQSTISPTGKAGFAVKAIYDYAAADKDEISFLEGDIIVNCEKIDDGWMTGTVQRTLQWGMLPANYVQPHKLPTGLHRLS	not soluble
MAHHHHHHMSASPQLTRELSEDLLAGRYECVVCSEPVGHRQELWACSCCYGVFHLPCIRFWADSQMKARDRQLQSTSGVAVRGELERFRCPLCQSFKDKDSLAVYQCYCGKTAKPPADAMLVPGSCGQPCERRQADPCCPHRCTLLCHPGPCPACTRVREQACWCGKHSKTVGCSSSIHGYECDEACGKLLDCGEHRCKAPCHEGVCPVCTVMVTEKCYCGATVRTRRCGAAPPAFAGAAATAAADDRAAGDAGAGASVSGFRCAHHCEKKRDCDQHVCGMLCHPGLCEKCYRTPQRQKFCPCGKTRVQVERTSCMDPVPSCGLPCELPLPCGHLCWLTCHDETPCAPCKETVTVPCACGSRHVSSPCFCQYLPESEWEAARVQCGLPTDSLPVSVPPKCNQVCRHMLSCHKHRCTMTCCTDAEHTCLQICIRKLACGVHQCGRLCHQGKCPPCAHVSYERLYCRCRKTWVDPPVPCGMRPPQCNHPCSIPRPCGHPPNHPCHIEAECPKCVVLEEKPCASHQKPMPFHMPCYKKEISCGRKCGKNLPCCGKFCDLVCHIGPCEHDCAKSFPTLADVLKRGKGAAA	not soluble
SNAMSQKLYNMKFAAVYLALIAKVERKGGKAESVHQVTSWLTGYEVSDVLACLDRDVTYGDFFRQAPYYVPERIAITGKICGVRIEEIDDPLMQEIRRLDKLVDWLAKGKTSQQVLEKYEKHK	soluble
MSLKSVIIGTAGHIDHGKTSLIKALNGFEGDSLKEEQERQITINLSFSNLKLKDKNISFIDVPGHKDLVKTMVSGAFGFSVCLFVVDINEGLKEQSLEHLEILKILDIKNIILVLSKCDLCENIEQKSVEILEELKNLDYPILKVFHTSIKNNQGIEELKNYLYTIENKENDEELIFHYYIDRVFSLKGIGTVVTGSLNEGSITLNEKIICLDTQKELIVKNIQNHDTNLEQIKACNRVALSLNCDYKELKKGYLLSKKGYFKAFKECDALVKAKNLQNSKMIFCVGSRQIECKINILKKLENDEFFVHFSFDKNVFLSFDEAFILLQNNRVIGGGKVLNPLSEPLKKEQKNKFLMFLKNKDFKAAFSFLKDAHKYGFGLLSSYQRFKLSHQKALKLAKELNQVFVDEKNLNVYHLQSLEEIKNFIKFILEKNPYAMLSAHSLALRITWASENFCELGLKEMSNLLDFQNGIYFKKGIDFEKLQEKNNNQMYEILKKQGIKPEAPYNLYDFLELDREGHHHHHH	soluble
MSMKTTQEINKEDEELCNESKKFMDVYYDVMDRKREKIGFLYTQVSNAVWNGNPINGYDSICEFMKALPSTQHDIQSLDAQRLPEGVTGDMSGGMLLNVAGAVTVDGDSKRAFTQTLLLGVEDGKYKVKSDRFRYVD	not soluble
MKFIDEYRDPARARALLDRIRQVARHDWTIMEICGGQTHSILRNGIDQLLPPNVQLVHGPGCPVCVTPLETIERALAIAARPNTILTSFGDMLRVPGNSKDLFMARSEGADVRVVFSPLEALQIARDNPSKEVVFLGVGFETTAPANAMAVHQAAREGLTNFSELVSQVMVPPAMRAMLSSPGNRVQGFLAAGHVCAIMGYEEYEPVAAEFGVPIVPAGFEPVDLLDAILKTVELLEAGRSGVVNAYGRVVSREGNPEARRVMQEVFEVADRPWRGIGVIPASGLVLRPEYKRFDAEKRFDVGHIAPQESPLCRSGEVLQGHLKPSDCPAFGKECTPQTPFGATMVSSEGACAAYYRYHRNSNT	soluble
SNAMEKYILSIDQGTTSSRAILFNQKGEIAGVAQREFKQYFPQSGWVEHDANEIWTSVLAVMTEVINENDVRADQIAGIGITNQRETTVVWDKHTGRPIYHAIVWQSRQTQSICSELKQQGYEQTFRDKTGLLLDPYFAGTKVKWILDNVEGAREKAENGDLLFGTIDTWLVWKLSGKAAHITDYSNASRTLMFNIHDLEWDDELLELLTVPKNMLPEVKASSEVYGKTIDYHFYGQEVPIAGVAGDQQAALFGQACFERGDVKNTYGTGGFMLMNTGDKAVKSESGLLTTIAYGIDGKVNYALEGSIFVSGSAIQWLRDGLRMINSAPQSESYATRVDSTEGVYVVPAFVGLGTPYWDSEARGAIFGLTRGTEKEHFIRATLESLCYQTRDVMEAMSKDSGIDVQSLRVDGGAVKNNFIMQFQADIVNTSVERPEIQETTALGAAFLAGLAVGFWESKDDIAKNWKLEEKFDPKMDEGEREKLYRGWKKAVEATQVFKTE	soluble
MSLRIIHICLWLLTGIFAEVSLSAQNPFIYHKGKTYKDVAAYRMEEIIDLNTHTPSTPILYEQQVPEHQSTLSYKVALPLYVRGIFFSRDSRPGDYQWPNNTNRLLPWMFNHLEDLTRSDYASIPSNALPSASGDALLLELADGEYLFAKAIAGSNSLSWFQVNQDGTLTLYVSTLGEDALTGRLPLLIFRKSSSVYHVFSDAYDSLIADKAVSALRKRADKQYFNAFDYLGWCTWEHYHYDIDETKILNDIDAIEASGIPVRYVLIDDGHIANKNRQLTSLVPDKKRFPNGWSRIMKRKQADKIRWIGLWYSLSGYWMGISAENDFPPEIRQVLHSYNGSLLPGTSTEKIETWYEYYVRTMKEYGFDFLKIDNQSFTLPLYMGGTQVIRQAKDCNLALEHQTHRMQMGLMNCMAQNVLNIDHTLYSSVTRASIDYKKYDENMAKSHLFQSYTNTLILGQTVWPDHDMFHSCDTVCGSLMARSKAISGGPVYLSDSPSEFIADNIRPLIDETGKIFRPAAPAIPTPESILTNPLQSGKAYREGHHHHHH	soluble
MEVKEMFSLGGGLGRSKVDESKVWDVIIIGAGPAGYTAAIYAARFGLDTIIITKDLGGNMAITDLIENYPGFPEGISGSELSKKMYDQVKKYGVEVIIDEVIRIDPAECAYYEGPCNFVVKTANGKEYKAKTIIIAVGAEPRKLNVPGEKEFTGRGVSYCATCDGPLFVGKEVIVVGGGNTALQEALYLHSIGVKVTLVHRRDKFRADKILQDRFKQAGIPAILNTVVTEIKGTNKVESVVLKNVKTGETVEKKVDGVFIFIGYEPKTDFVKHLGITDEYGYIPVDMYMRTKVPGIFAAGDITNVFKQIAVAVGQGAIAANSAKEFIESWNGKTIE	soluble
